Assays:
[1] = tested on: NC(=O)c1ncn([C@@H]2O[C@H](COP(=O)(O)O)[C@@H](O)[C@H]2O)c1N=CN[C@@H]1O[C@H](COP(=O)(O)O)[C@@H](O)[C@H]1O; assay: purified protein
[2] = tested on: O=C(O)c1ccccc1N[C@@H]1O[C@H](COP(=O)(O)O)[C@@H](O)[C@H]1O; assay: purified protein
[3] = substrate: O=C(O)c1ccccc1N[C@@H]1O[C@H](COP(=O)(O)O)[C@@H](O)[C@H]1O; assay: PRA isomerase steady-state kinetics; assay type: biochemical, Streptomyces ipomoeae
[4] = substrate: O=C(O)c1ccccc1N[C@@H]1O[C@H](COP(=O)(O)O)[C@@H](O)[C@H]1O; assay: PRA isomerase steady-state kinetics; assay type: biochemical, Jonesia denitrificans
[5] = substrate: O=C(O)c1ccccc1N[C@@H]1O[C@H](COP(=O)(O)O)[C@@H](O)[C@H]1O; assay: PRA isomerase steady-state kinetics; assay type: biochemical, Streptomyces sviceus
[6] = substrate: NC(=O)c1ncn([C@@H]2O[C@H](COP(=O)(O)O)[C@@H](O)[C@H]2O)c1N=CN[C@@H]1O[C@H](COP(=O)(O)O)[C@@H](O)[C@H]1O; assay: ProFAR isomerase steady-state kinetics; assay type: biochemical, Mycolicibacterium smegmatis; details: pH 7.5
[7] = substrate: O=C(O)c1ccccc1N[C@@H]1O[C@H](COP(=O)(O)O)[C@@H](O)[C@H]1O; assay: PRA isomerase steady-state kinetics; assay type: biochemical, Mycolicibacterium smegmatis; details: pH 7.5
[8] = substrate: NC(=O)c1ncn([C@@H]2O[C@H](COP(=O)(O)O)[C@@H](O)[C@H]2O)c1N=CN[C@@H]1O[C@H](COP(=O)(O)O)[C@@H](O)[C@H]1O; assay: ProFAR isomerase steady-state kinetics; assay type: biochemical, Streptomyces ipomoeae
[9] = substrate: NC(=O)c1ncn([C@@H]2O[C@H](COP(=O)(O)O)[C@@H](O)[C@H]2O)c1N=CN[C@@H]1O[C@H](COP(=O)(O)O)[C@@H](O)[C@H]1O; assay: ProFAR isomerase steady-state kinetics; assay type: biochemical, Streptomyces sviceus
[10] = substrate: O=C(O)c1ccccc1N[C@@H]1O[C@H](COP(=O)(O)O)[C@@H](O)[C@H]1O; assay: PRA isomerase steady-state kinetics; assay type: biochemical, Streptomyces sp. C
[11] = substrate: NC(=O)c1ncn([C@@H]2O[C@H](COP(=O)(O)O)[C@@H](O)[C@H]2O)c1N=CN[C@@H]1O[C@H](COP(=O)(O)O)[C@@H](O)[C@H]1O; assay: ProFAR isomerase steady-state kinetics; assay type: biochemical, Streptomyces sp. C
[12] = substrate: O=C(O)c1ccccc1N[C@@H]1O[C@H](COP(=O)(O)O)[C@@H](O)[C@H]1O; assay: PRA isomerase steady-state kinetics; assay type: biochemical, Streptomyces globisporus
[13] = substrate: NC(=O)c1ncn([C@@H]2O[C@H](COP(=O)(O)O)[C@@H](O)[C@H]2O)c1N=CN[C@@H]1O[C@H](COP(=O)(O)O)[C@@H](O)[C@H]1O; assay: ProFAR isomerase steady-state kinetics; assay type: biochemical, Streptomyces globisporus

Q: For PriB_SMg1 (Streptomyces sp.), which Km [1] is on record?
A: 13.2 ± 3.4 µM

Q: What about the kcat [1] of the same molecule?
A: 0.92 ± 0.19 s⁻¹

Q: And the kcat/Km [1]?
A: 69000 M⁻¹ s⁻¹

Q: What about the Km [2] of the same molecule?
A: 129.6 ± 34 µM

Q: And the kcat [2]?
A: 0.29 ± 0.04 s⁻¹

Q: And the kcat/Km [2]?
A: 2200 M⁻¹ s⁻¹

B1: TrpF-3_Sipo (Streptomyces ipomoeae 91-03) (protein)
chain: MSVSNSNDSLFIKICGLRTERDVDTAVEAGADAVGFVFSASPRQIDADTAARLCDRVPEHVLTVGVFRDEPLRDVRSFATDSGIRAVQLHGPEDRAYYDDLAKGDWTLIRAAAFGDTVPRCGEFGEDMLLIDAPVPGSGIAWDWSSKPLAGSGERWILAGGLSPENVRDAVAATQPWGVDVSSGVELSRGVKDPALITEFVKAVRGGC
Q: For B1, which Km [3] is on record?
A: 23.0 ± 1.3 µM

Q: And the kcat [3]?
A: 4.3 ± 0.35 s⁻¹

Q: What about the kcat/Km [3] of the same molecule?
A: 190000 M⁻¹ s⁻¹

B2: TrpF-3_Jden (Jonesia denitrificans DSM 20603) (protein)
chain: MYIKVCGLTDPHAIDAAQAAHVDAIGFVHAPTSPRHLTPPHISTLTATVDCTIDTVLVVATTPIADALALAESTGVSVLQLHGQYSDDDVAYAAARFPRVWRATSLSASPNLTVGAYGEELLLLDAPQAGSGHTWDFAALAHRRPTGRWLLAGGLTPDNVADAITTTSPWGVDVSSGVESAPGVKDPAKIAAFVQAARGVSCPR
Q: With B2 as the molecule, how does the Km [4] read?
A: 16.8 ± 3.3 µM

Q: What about the kcat [4] of the same molecule?
A: 27 ± 1.6 s⁻¹

Q: What about the kcat/Km [4] of the same molecule?
A: 1.6e+06 M⁻¹ s⁻¹

B3: TrpF-3_Ssvi (Streptomyces sviceus ATCC 29083) (protein)
chain: MTLFVKICGLRTEQDVDTAVEAGADAIGFVFSDSPRRIDPAAAARLAARIPESVLTVGVFRREPLEYVRSVAAESGIGAVQLHGPEDRAYYDELSGGGWTLIRAAAFGDRVPRCGELGEDMLLLDAPVPGSGIAWDWSRKQVAGAGEKWLLAGGLTPENVREAVDVTRPWGVDVSSGVEASRGVKNPALITAFVEAARAGAVTSG
Q: What does the source list for B3?
A: Km [5]: 9.4 ± 0.47 µM; kcat [5]: 0.82 ± 0.08 s⁻¹; kcat/Km [5]: 88000 M⁻¹ s⁻¹

B4: PriA_Msme (Mycolicibacterium smegmatis MC2 155) (protein)
chain: MATGATEAAGAGKRGLILLPAVDVVNGQAVRLVQGKAGSETDYGSAIEAAEAWQRDGAEWIHLVDLDAAFGRGSNRELLAEVVGKLDVAVELSGGIRDDESLRAALDTGCARVNIGTAALENPQWCARAIAEHGDRVAVGLDAQTDGAGGFRLRGRGWETDGGDLWEVLDRLDSEGCSRYVVTDVSKDGTLTGPNLDLLAAVAGRTDAPVIASGGVSSLDDLRAIATLTGVGVEGAIVGKALYAGRFTLPQALSAVSG
Q: What does the source list for B4?
A: Km [6]: 2.6 ± 0.5 µM; kcat [6]: 0.85 ± 0.04 s⁻¹; kcat/Km [6]: 330000 M⁻¹ s⁻¹; Km [7]: 7.9 ± 2.4 µM; kcat [7]: 3.1 ± 0.43 s⁻¹; kcat/Km [7]: 390000 M⁻¹ s⁻¹

B5: PriB_Sipo (Streptomyces ipomoeae 91-03) (protein)
chain: MAKLELLPAVDVRDGQAVRLVHGESGTETSYGSPLEAALAWQRAGAEWLHLVDLDAAFGTGDNRDLVAEVTRAMDIKVELSGGIRDDASLAKALATGCTRVNLGTAALETPEWVAKVIAEHGDKIAVGLDVKGTTLRGRGWTRDGGDLYETLERLDKEGCARYVVTDIAKDGTLQGPNLELLRNVCAATDRPVVASGGVSSLDDLRAIAELVPLGVEGAIVGKALYAKAFTLEEALEATS
Q: What does the source list for B5?
A: Km [8]: 3.8 ± 0.2 µM; kcat [8]: 0.82 ± 0.02 s⁻¹; kcat/Km [8]: 210000 M⁻¹ s⁻¹; Km [3]: 60.8 ± 1.1 µM; kcat [3]: 8.25 ± 0.4 s⁻¹; kcat/Km [3]: 140000 M⁻¹ s⁻¹

B6: PriB_Ssvi (Streptomyces sviceus ATCC 29083) (protein)
chain: MPSKLSRLELLPAVDVRDGQAVRLVHGESGTETSYGSPLEAALSWQRAGAEWLHLVDLDAAFGTGDNRELVRQVTEAMDIKVELSGGIRDDASLAAALATGCTRVNLGTAALESPEWVAKVIAEHGDRIAVGLDVRGTTLKGRGWTSEGGDLYEALERLDKEGCARYVVTDIAKDGTLQGPNLELLRNVCAATDRPVVASGGVSSLDDLRAIAELVPLGVEGSIVGKALYAKAFTLEEALEAVAQ
Q: For B6, which Km [9] is on record?
A: 3.9 ± 0.89 µM

Q: What about the kcat [9] of the same molecule?
A: 0.69 ± 0.04 s⁻¹

Q: And the kcat/Km [9]?
A: 180000 M⁻¹ s⁻¹

Q: What about the Km [5] of the same molecule?
A: 24.5 ± 4.0 µM

Q: What about the kcat [5] of the same molecule?
A: 1.6 ± 0.29 s⁻¹

Q: And the kcat/Km [5]?
A: 67000 M⁻¹ s⁻¹

B7: PriB_SspC (Streptomyces sp. C) (protein)
chain: MPNTLELLPAVDVRDGQAVRLVHGVSGSETSYGSPLEAALAWQASGAEWLHLVDLDAAFGTGDNRALVADITRAMDIKVELSGGIRDDATLAAALATGCTRVNLGTAALETPEWAAKAIAEHGDRIAIGLDVRGTTLKGRGWTSEGGDLYETLARLDSEGCARYVVTDIGKDGTLTGPNLELLKNVCAATDRPVVASGGVSSLDDLRALSELVPLGVEGAIVGKALYAKAFTLEEALEAVRA
Q: Which results are given for B7?
A: Km [10]: 149.9 ± 29 µM; kcat [10]: 1.4 ± 0.12 s⁻¹; kcat/Km [10]: 9000 M⁻¹ s⁻¹; Km [11]: 11.4 ± 3.4 µM; kcat [11]: 2.53 ± 0.74 s⁻¹; kcat/Km [11]: 220000 M⁻¹ s⁻¹

B8: PriA_Sglo (Streptomyces globisporus) (protein)
chain: MPKLELLPAVDVRDGQAVRLVHGESGSETSYGSPLEAALAWQSAGAEWLHLVDLDAAFGTGDNRALIAEVAGAMDIKVELSGGIRDDASLEAALATGCRRVNLGTAALETPEWVAKVIAEHGDKIAVGLDVRGTTLRGRGWTRDGGDLYETLARLDAEGCARYVVTDIAKDGTLEGPNLGLLRDVCAVTDRPVVASGGVSSLDDLRAISLLVPEGVEGAIVGKALYAKAFTLEEALKAVAA
Q: B8 was tested. Which Km [12] did it give?
A: 11 ± 1.0 µM

Q: And the kcat [12]?
A: 3.8 ± 0.2 s⁻¹

Q: And the kcat/Km [12]?
A: 340000 M⁻¹ s⁻¹

Q: What about the Km [13] of the same molecule?
A: 4.2 ± 0.8 µM

Q: And the kcat [13]?
A: 0.74 ± 0.03 s⁻¹

Q: What about the kcat/Km [13] of the same molecule?
A: 180000 M⁻¹ s⁻¹

Source: article PMC6886522
